Results on four molecules are retold here after article PMC2888197, “B-lymphocyte stimulator/a proliferation-inducing ligand heterotrimers are elevated in the sera of patients with autoimmune disease and are neutralized by atacicept and B-cell maturation antigen-immunoglobulin” (Arthritis Research & Therapy, 2010).

The labels stand for the following.
B1: Flag-zippered (zz) 12.6 form of APRIL (amino acids 110-250) (domain or fragment, human, UniProt O75888 110-250, looked up)
chain: KQKKQHSVLHLVPINATSKDDSDVTEVMWQPALRRGRGLQAQGYGVRIQDAGVYLLYSQVLFQDVTFTMGQVVSREGQGRQETLFRCIRSMPSHPDRAYNSCYSAGVFHLHQGDILSVIIPRARAKLNLSPHGTFLGFVKL
notes: human APRIL amino acids 110-250, downstream of the otPA leader, Flag and the zz12.6 trimerization domain; The APRIL chain of the heterotrimer m3; the zipper itself may help to hold the chains together; also called Flag-zz12.6 APRIL; APRIL NF zz12.6; source: CHO DXB11, co-expressed with Hisx6-zz12.6 BLyS, purified from conditioned media (Ni-NTA, heparin, SEC); not shown: Flag, N-terminal, kept; …
B2: a proliferation-inducing ligand (APRIL) homotrimer, recombinant (ligand, human, UniProt O75888 110-250, looked up)
chain: B1 chain
notes: APRIL, recombinant soluble homotrimer; Six lots were used for SPR; also called homotrimeric APRIL
B3: B-cell maturation antigen (BCMA)-immunoglobulin (Ig) (Fc fusion, UniProt Q02223 1-54, looked up)
chain: MLQMAGQCSQNEYFDSLLHACIPCQLRCSSNTPPLTCQRYCNASVTNSVKGTNA
notes: BCMA, soluble receptor-Fc fusion protein; Construct not described in the main text; Additional file 1 may describe it; also called BCMA-Ig
B4: atacicept (Fc fusion, human, UniProt O14836 1-165, looked up)
chain: MSGLGRSRRGGRSRVDQEERFPQGLWTGVAMRSCPEEQYWDPLLGTCMSCKTICNHQSQRTCAAFCRSLSCRKEQGKFYDHLLRDCISCASICGQHPKQCAYFCENKLRSPVNLPPELRRQRSGEVENNSDNSGRYQGLEHRGSEASPALPGLKLSADQVALVYS
notes: also called TACI-Ig; soluble receptor fusion protein of TACI

What all share (conditions): both partners purified
Assay [1] concerns the target T1, Hisx6-zz12.6 form of BLyS (amino acids 141-285) (human, UniProt Q9Y275 141-285).
T1 construct: The BLyS chain of the heterotrimer m3; the zipper itself may help to hold the chains together; also called BLyS NH6 zz12.6; His-zz12.6 BLyS; source: CHO DXB11, co-expressed with Flag-zz12.6 APRIL, purified from conditioned media (Ni-NTA, heparin, SEC); not shown: His6, N-terminal, kept; zz12.6 trimerization domain, N-terminal, kept
Nature of the assay: SEC-MALS; heterotrimer co-expressed in CHO, purified by Ni-NTA (His on BLyS), heparin and SEC; ratio of the chains by Western blot (anti-His, anti-Flag), confirmed by SEC-MALS. For orientation: Size exclusion chromatography separates by hydrodynamic size, large species first.

In assay [2] the target is B4. Nature of the assay: SPR; Biacore 3000; atacicept, BCMA-Ig and BAFF-R-Ig covalently immobilized on a CM4 chip; ligands ~0.05 to 20 nMol/L flowed at 50 ul/min, 25 C; 20 mmol/L sodium phosphate, 150 mmol/L NaCl, 0.05% polysorbate 20, pH 7.5; KD from ka and kd, global fit to a 1:1 model; stoichiometry not determined. (In general: Surface plasmon resonance follows binding to a sensor surface in real time, without labels.)

For assay [3], the target named is B2. The assay is described as above.
For assay [4], the target named is T2, recombinant BLyS/APRIL heterotrimer (Hisx6-zz12.6 BLyS with Flag-zz12.6 APRIL), predominantly 2 APRIL to 1 … (human, UniProt O75888 110-250; Q9Y275 141-285).
T2 construct: human APRIL amino acids 110-250, downstream of the otPA leader, Flag and the proprietary zz12.6 trimerization domain; The preparation holds a small fraction of 1 APRIL to 2 BLyS (AB2) heterotrimers; also called heterotrimers; HT; not shown: Flag, N-terminal, kept; zz12.6 trimerization domain, N-terminal, kept; His6, N-terminal, kept; copies: 2 + 1
T2 sequence (Q9Y275 141-285, chain 2 of 2, one chain of several): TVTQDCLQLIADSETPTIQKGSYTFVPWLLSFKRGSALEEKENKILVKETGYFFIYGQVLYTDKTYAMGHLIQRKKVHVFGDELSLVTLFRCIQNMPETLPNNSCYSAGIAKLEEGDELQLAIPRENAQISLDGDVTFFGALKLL
Described as above.

T1 sequence (Q9Y275 141-285): as the sequence (Q9Y275 141-285, chain 2 of 2, one chain of several) above

A word on the stoichiometry N: it is the number of molecules, sites or subunits per partner or assembly. With B1, the “stoichiometry N” value in assay [1] is 2 APRIL per BLyS.

What is called Kd is the concentration at which binding is half-saturated. In assay [2], B2 came in with a Kd of 0.1 to 0.2 nM. As to B3, the dissociation constant Kd is 0.1 to 0.3 pM in assay [3] and 0.01 nM in assay [4]. For B4, the equilibrium dissociation constant (Kd) in assay [4] amounted to 0.4 nM.
